Test results as given in US20240117326A1 (COMMONWEALTH SCIENTIFIC AND INDUSTRIAL RESEARCH ORGANISATION, published 2024).

T1: MPP-processed MTP-FAγ51::NifU::HA fusion polypeptide encoded by SN32 (scar9::GG::NifU::HA) (Klebsiella oxytoca, UniProt P05343 1-274)
T1 construct: also called scar9::NifU::HA; processed NifU
T1 sequence: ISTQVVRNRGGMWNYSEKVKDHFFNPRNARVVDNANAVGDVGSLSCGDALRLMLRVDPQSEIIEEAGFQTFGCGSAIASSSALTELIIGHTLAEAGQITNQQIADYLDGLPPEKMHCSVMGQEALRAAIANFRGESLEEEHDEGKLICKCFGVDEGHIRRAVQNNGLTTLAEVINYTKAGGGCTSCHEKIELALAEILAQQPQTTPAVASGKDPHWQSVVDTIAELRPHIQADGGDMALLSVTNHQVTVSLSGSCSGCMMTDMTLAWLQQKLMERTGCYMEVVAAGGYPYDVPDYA

T2: MPP-processed MTP-FAγ51::NifS::HA fusion polypeptide encoded by SN31 (scar9::GG::NifS::HA) (Klebsiella oxytoca, UniProt P05344 1-397)
T2 construct: also called scar9-NifS::HA; processed NifS
T2 sequence: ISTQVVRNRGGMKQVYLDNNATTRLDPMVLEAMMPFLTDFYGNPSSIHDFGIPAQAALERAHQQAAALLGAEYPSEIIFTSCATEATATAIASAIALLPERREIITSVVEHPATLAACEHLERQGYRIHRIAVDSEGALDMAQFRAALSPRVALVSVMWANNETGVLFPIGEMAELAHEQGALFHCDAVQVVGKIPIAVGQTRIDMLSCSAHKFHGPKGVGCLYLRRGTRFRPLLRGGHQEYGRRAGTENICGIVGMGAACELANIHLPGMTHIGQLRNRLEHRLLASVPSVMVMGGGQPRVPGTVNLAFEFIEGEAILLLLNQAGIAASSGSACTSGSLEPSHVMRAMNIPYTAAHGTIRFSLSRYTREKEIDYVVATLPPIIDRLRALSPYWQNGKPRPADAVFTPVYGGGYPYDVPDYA

B1: MPP-processed MTP-FAγ51::NifS::TwinStrep fusion polypeptide encoded by SN231 (scar9::NifS::TS) (enzyme)
chain: not shown
notes: the text names scar9::NifS::TS in the eluate; also called MTP-FAγ51::NifS::TS
B2: unprocessed MTP-FAγ51::NifS::HA fusion polypeptide encoded by SN31 (enzyme)
chain: MMAMAVFRREGRRLLPSIAARPIAAIRSPLSSDQEEGLLGVRSISTQVVRNRGGMKQVYLDNNATTRLDPMVLEAMMPFLTDFYGNPSSIHDFGIPAQAALERAHQQAAALLGAEYPSEIIFTSCATEATATAIASAIALLPERREIITSVVEHPATLAACEHLERQGYRIHRIAVDSEGALDMAQFRAALSPRVALVSVMWANNETGVLFPIGEMAELAHEQGALFHCDAVQVVGKIPIAVGQTRIDMLSCSAHKFHGPKGVGCLYLRRGTRFRPLLRGGHQEYGRRAGTENICGIVGMGAACELANIHLPGMTHIGQLRNRLEHRLLASVPSVMVMGGGQPRVPGTVNLAFEFIEGEAILLLLNQAGIAASSGSACTSGSLEPSHVMRAMNIPYTAAHGTIRFSLSRYTREKEIDYVVATLPPIIDRLRALSPYWQNGKPRPADAVFTPVYGGGYPYDVPDYA
notes: Full-length translation product, not cleaved by MPP; also called unprocessed form of the NifS fusion polypeptide
B3: MPP-processed MTP-CoxIV::Twin Strep::AnfK fusion polypeptide (gene of SN195; in SL34, SL37, SL43) (enzyme)
chain: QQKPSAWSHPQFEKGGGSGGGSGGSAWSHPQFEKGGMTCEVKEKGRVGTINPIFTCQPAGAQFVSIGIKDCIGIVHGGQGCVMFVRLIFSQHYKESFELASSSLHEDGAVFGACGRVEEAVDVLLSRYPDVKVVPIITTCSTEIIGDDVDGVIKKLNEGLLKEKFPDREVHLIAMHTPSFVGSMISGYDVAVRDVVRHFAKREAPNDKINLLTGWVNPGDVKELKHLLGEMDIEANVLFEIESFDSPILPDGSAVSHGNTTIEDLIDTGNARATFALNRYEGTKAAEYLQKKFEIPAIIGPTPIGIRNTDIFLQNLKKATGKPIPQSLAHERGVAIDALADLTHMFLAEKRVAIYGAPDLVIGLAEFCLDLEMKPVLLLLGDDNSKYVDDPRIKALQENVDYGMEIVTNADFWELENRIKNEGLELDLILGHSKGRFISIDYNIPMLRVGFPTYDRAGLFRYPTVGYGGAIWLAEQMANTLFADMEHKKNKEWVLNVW
notes: also called MTP-CoxIV::TwinStrep::AvAnfK
B4: MPP-processed MTP-FAγ51::HA::AnfK fusion polypeptide (gene of SN129; in SL26, SL30, SL93) (enzyme)
chain: ISTQVVRNRGGYPYDVPDYAGGMTCEVKEKGRVGTINPIFTCQPAGAQFVSIGIKDCIGIVHGGQGCVMFVRLIFSQHYKESFELASSSLHEDGAVFGACGRVEEAVDVLLSRYPDVKVVPIITTCSTEIIGDDVDGVIKKLNEGLLKEKFPDREVHLIAMHTPSFVGSMISGYDVAVRDVVRHFAKREAPNDKINLLTGWVNPGDVKELKHLLGEMDIEANVLFEIESFDSPILPDGSAVSHGNTTIEDLIDTGNARATFALNRYEGTKAAEYLQKKFEIPAIIGPTPIGIRNTDIFLQNLKKATGKPIPQSLAHERGVAIDALADLTHMFLAEKRVAIYGAPDLVIGLAEFCLDLEMKPVLLLLGDDNSKYVDDPRIKALQENVDYGMEIVTNADFWELENRIKNEGLELDLILGHSKGRFISIDYNIPMLRVGFPTYDRAGLFRYPTVGYGGAIWLAEQMANTLFADMEHKKNKEWVLNVW
notes: also called HA::AnfK processed
B5: MPP-processed MTP-FAγ51::NifU::TwinStrep fusion polypeptide encoded by SN166 (scar9::GG::NifU::TS) (other)
chain: not shown
notes: N-terminal analysis and the tryptic peptide ISTQVVR confirmed cleavage at the intended site; Purified from N. benthamiana leaves; also called scar9-NifU::TS; scar9-NifU-TwinStrep

Legend:
[1] = target: T1, MPP-processed MTP-FAγ51::NifU::HA …; assay: co-purification on StrepTactinXT column through NifS::TS from N. benthamiana leaf extract (SN231 + SN32); anti-HA Western blot
[2] = target: B5; assay: co-purification on StreptactinXT column through NifU::TS from N. benthamiana leaf extract (SN31 + SN166), anaerobic, anti-HA Western blot of the eluate
[3] = target: T3, MPP-processed MTP-FAγ51::HA::AnfD fusion polypeptide (gene of SN161; in SL26, SL34, SL43, SL93) (Azotobacter vinelandii, UniProt P16266 1-518); assay: co-purification on Strep-tactin column through TwinStrep::AnfK (SL34), aerobic; anti-HA Western blot
T3 construct: also called HA::AnfD processed; AnfD polypeptide

[4] = target: T4, MPP-processed MTP-FAγ51::AnfD::Twin Strep fusion polypeptide (gene of SN177, expressed from multi-gene vector … (Azotobacter vinelandii, UniProt P16266 1-518)); assay: discussion of the AnfD::TwinStrep purification, aerobic
T4 construct: The eluted AnfD migrated at the size of the processed form; also called AnfD polypeptide (SL30)
T4 sequence (P16266 other isoform, or with tags, fused parts or gaps): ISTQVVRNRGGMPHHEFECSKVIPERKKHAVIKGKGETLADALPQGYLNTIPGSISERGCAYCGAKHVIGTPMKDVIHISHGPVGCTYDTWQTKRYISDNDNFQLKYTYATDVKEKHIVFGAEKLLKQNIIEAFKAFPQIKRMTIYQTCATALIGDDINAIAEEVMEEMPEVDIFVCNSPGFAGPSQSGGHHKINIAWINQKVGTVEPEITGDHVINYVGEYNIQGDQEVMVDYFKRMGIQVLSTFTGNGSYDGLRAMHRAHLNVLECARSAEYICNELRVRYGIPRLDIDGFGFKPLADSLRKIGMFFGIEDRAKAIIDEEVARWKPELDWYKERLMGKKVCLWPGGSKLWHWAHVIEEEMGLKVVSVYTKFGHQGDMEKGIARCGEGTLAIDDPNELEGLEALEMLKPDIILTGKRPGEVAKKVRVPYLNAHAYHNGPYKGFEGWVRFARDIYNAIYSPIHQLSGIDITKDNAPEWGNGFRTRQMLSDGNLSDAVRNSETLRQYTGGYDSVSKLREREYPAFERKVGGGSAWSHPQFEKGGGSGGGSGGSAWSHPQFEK

[5] = target: T2, MPP-processed MTP-FAγ51::NifS::HA …; assay: co-purification on StreptactinXT column through NifU::TS from N. benthamiana leaf extract (SN31 + SN166), anaerobic, non-denaturing; anti-HA Western blot

B1
binding result [1]: binds

B2
binding result [2]: no binding

B3
binding result [3]: binds

B4
binding result [4]: binds

B5
binding result [5]: binds
